4 molecules from patent publication US20150299298A1 (TRELLIS BIOSCIENCE, published 2015) can be followed below.

Experiment [1] concerns the target T1, IHF from Staphylococcus aureus (Staphylococcus aureus, UniProt Q5HFV0 1-90).
T1 construct: mature; not shown: poly-histidine tag
T1 sequence: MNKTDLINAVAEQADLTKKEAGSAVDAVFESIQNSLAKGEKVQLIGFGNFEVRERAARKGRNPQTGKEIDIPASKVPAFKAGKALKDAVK
The experiment in a line: ELISA at pH 3.5.

Experiment [2] deals with T2, IHF from Klebsiella pneumoniae (Klebsiella pneumoniae, UniProt A6TAI1 1-99).
T2 construct: also called IHF (Kp); K. pneumoniae
T2 sequence: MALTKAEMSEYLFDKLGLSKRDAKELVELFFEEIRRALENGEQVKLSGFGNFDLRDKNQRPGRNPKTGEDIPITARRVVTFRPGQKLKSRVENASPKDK
The experiment in a line: ELISA at pH 3.5. (An ELISA detects its analyte on a solid surface through an enzyme-linked reagent.)

Experiment [3] deals with T3, IHF from Pseudomonas aeruginosa (Pseudomonas aeruginosa, UniProt Q51472 2-100).
T3 construct: mature; also called IHF (Pa); P. aeruginosa; not shown: poly-histidine tag
T3 sequence: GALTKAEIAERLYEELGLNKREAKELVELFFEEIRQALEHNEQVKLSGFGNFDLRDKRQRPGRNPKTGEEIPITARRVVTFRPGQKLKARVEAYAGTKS
Nature of the experiment: ELISA at pH 3.5.

Experiment [4] addresses T1, IHF from Staphylococcus aureus. Nature of the experiment: ELISA at pH 6.5.
Experiment [5] deals with T2, IHF from Klebsiella pneumoniae. Nature of the experiment: ELISA at pH 6.5.
The target in experiment [6] is T3, IHF from Pseudomonas aeruginosa. Nature of the experiment: ELISA at pH 6.5.
For experiment [7], the target named is T1, IHF from Staphylococcus aureus. The experiment in a line: ELISA at pH 5.5.
The target in experiment [8] is T2, IHF from Klebsiella pneumoniae. The experiment in a line: ELISA at pH 5.5.
For experiment [9], the target named is T3, IHF from Pseudomonas aeruginosa. Nature of the experiment: ELISA at pH 5.5.
Experiment [10] concerns the target T1, IHF from Staphylococcus aureus. Nature of the experiment: ELISA at pH 4.5.
The target in experiment [11] is T2, IHF from Klebsiella pneumoniae. Nature of the experiment: ELISA at pH 4.5.
In experiment [12] the target is T3, IHF from Pseudomonas aeruginosa. Nature of the experiment: ELISA at pH 4.5.
The target of experiment [13] is T1, IHF from Staphylococcus aureus. The experiment in a line: ELISA at pH 7.5.
Experiment [14] addresses T2, IHF from Klebsiella pneumoniae. Nature of the experiment: ELISA at pH 7.5.
The target of experiment [15] is T3, IHF from Pseudomonas aeruginosa. Nature of the experiment: ELISA at pH 7.5.
Experiment [16] addresses T1, IHF from Staphylococcus aureus. The experiment in a line: ELISA at pH 2.5.
In experiment [17] the target is T2, IHF from Klebsiella pneumoniae. Nature of the experiment: ELISA at pH 2.5.
Experiment [18] has as its target T3, IHF from Pseudomonas aeruginosa. The experiment in a line: ELISA at pH 2.5.
For experiment [19], the target named is T1, IHF from Staphylococcus aureus. The experiment in a line: ELISA on IHF from S. aureus (IHF-Sa ELISA), OD 450 nm against [mAb] nM.
For experiment [20] the target is unchanged. The experiment is described as above. This is another data set of the same source.
In experiment [21] the target is IHF from Staphylococcus aureus (Staphylococcus aureus) (UniProt Q5HFV0). Nature of the experiment: ELISA.

Where two headings read alike, the source gives them in different places.

B1: TRL1068 (antibody, V domains shown)
VH: QVQLVESGPGLVKPSETLSLTCRVSGDSNRPSYWSWIRQAPGKAMEWIGYVYDSGVTIYNPSLKGRVTISLDTSKTRFSLKLTSVIAADTAVYYCARERFDRTSYKSWWGQGTQVTVSS
VL: DIVLTQAPGTLSLSPGDRATLSCRASQRLGGTSLAWYQHRSGQAPRLILYGTSNRATDTPDRFSGSGSGTDFVLTISSLEPEDFAVYYCQQYGSPPYTFGQGTTLDIK
Take B1: the Affinity is 0.36 nM in [1]; 3 nM in experiment [2]; 0.26 nM in experiment [3]; 0.012 nM in [4]; 6 pM in experiment [5]; 5 pM in experiment [6]. In addition, the Affinity was 0.012 nM in experiment [7]; 9 pM in experiment [8]; 6 pM in experiment [9]; 0.012 nM in experiment [10]; 0.05 nM in experiment [11]; 9 pM in [12]. Moreover, the Affinity in [13] was determined as 0.01 nM; in [14] it was 6 pM; in experiment [15], 5 pM; in experiment [16], 3.5 nM; in experiment [17] it was 2.6 nM; in [18], 2.1 nM.

B2: TRL1338 (antibody, V domains shown)
VH: QLTLRESGPTLVKPTQTLTLTCTFSGFSLSTNGVGVGWIRQPPGKALEWLAIIYWDDDKRYSPSLKSRLTITKDTSKNQVVLTLTNMDPVDTGTYYCAHILGASNYWTGYLRYYFDYWGQGTLVTVST
VL: DIEMTQSPSVSVSPGQTARITCSGEPLAKQYAYWYQQKSGQAPVVVIYKDTERPSGIPERFSGSSSGTTVTLTISGVQAEDEADYHCESGDSSGTYPVFGGGTKLTVL
As for B2, the Kd in [19] and in [20] was 42 nM in each case.

B3: TRL1230 (antibody, V domains shown)
VH: QVQLVQSGGGLVKPGGSLRLSCGASGFNLSSYSMNWVRQAPGKGLEWVSSISSRSSYIYYADSVQGRFTISRDNAKNSLYLQMNSLRAEDTAIYYCARVSPSTYYYYGMDVWGQGTTVTVSS
VL: DIVLTQPSSVSVSPGQTARITCSGDELPKQYAYWYQQKPGQAPVLVIYKDNERPSGIPERFSGSSSGTTVTLTISGVQAEDEADYYCQSADSSGTYVVFGGGTKLTVL
B3: in experiment [21], the OD came out at 0.1 OD.

B4: TRL1337 (antibody, V domains shown)
VH: QVQLLESGPGLVKPSETPSLTCTVSGGSIRSYYWSWIRQPPGKGLEWIGYIYYSGSTNYNPSLKSRVTISVDMSKNQFSLKLSSVTAADTAMYYCARVYGGSGSYDFDYWGQGTLVTVSS
VL: DIVLTQSPSASGSPGQSVTISCTGTSSDVGGYNYVSWYQQLPGKAPKLMIYEVTKRPSGVPDRFSGSKSGNTASLTVSGLQAEDEADYYCSSFAGSNNHVVFGGGTKLTVL
Turning to B4, the Kd in experiment [19] and in experiment [20] was 6 nM each time.

As a reminder, the Kd is the equilibrium constant for the complex coming apart. Read a low Kd as higher affinity.
